Laboratory results taken from patent US20150239981A1.

Legend:
[1] = biological target: FcγRIIA-R131 (human) (UniProt P12318); experiment: SPR Biacore T100, antibody immobilised, receptor as analyte 0-12800 nM, steady state fit
[2] = biological target: FcγRI (human) (UniProt P12314); experiment: SPR Biacore T100, FcγRI captured by pentaHis antibody, antibody as analyte 0-100 nM
Target sequence in this assay (P12314 16-288 limits assumed): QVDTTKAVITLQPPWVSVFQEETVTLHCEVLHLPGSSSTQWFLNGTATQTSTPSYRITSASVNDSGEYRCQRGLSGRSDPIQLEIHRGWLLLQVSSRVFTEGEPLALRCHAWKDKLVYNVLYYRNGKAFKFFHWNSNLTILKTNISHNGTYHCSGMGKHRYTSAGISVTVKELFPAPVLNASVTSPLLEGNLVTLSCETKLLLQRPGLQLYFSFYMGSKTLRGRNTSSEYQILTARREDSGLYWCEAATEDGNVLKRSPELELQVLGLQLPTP

[3] = biological target: FcγRI (human) (UniProt P12314); experiment: SPR
Target sequence in this assay (P12314 16-288): as the sequence (P12314 16-288 limits assumed) above

[4] = biological target: FcγRIIIA-V158 (human) (UniProt P08637); experiment: SPR Biacore T100, antibody immobilised, receptor as analyte 0-12800 nM, steady state fit
Sequence of FcγRIIIA-V158 (human) (P08637 17-208 F176V limits assumed): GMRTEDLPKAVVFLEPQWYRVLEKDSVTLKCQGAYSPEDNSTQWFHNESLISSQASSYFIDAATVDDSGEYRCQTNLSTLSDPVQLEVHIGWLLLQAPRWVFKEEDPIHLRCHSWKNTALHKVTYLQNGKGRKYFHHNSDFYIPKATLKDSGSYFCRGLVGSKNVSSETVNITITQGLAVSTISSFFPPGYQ

Sequence of FcγRIIA-R131 (human) (P12318 36-218 H167R limits assumed): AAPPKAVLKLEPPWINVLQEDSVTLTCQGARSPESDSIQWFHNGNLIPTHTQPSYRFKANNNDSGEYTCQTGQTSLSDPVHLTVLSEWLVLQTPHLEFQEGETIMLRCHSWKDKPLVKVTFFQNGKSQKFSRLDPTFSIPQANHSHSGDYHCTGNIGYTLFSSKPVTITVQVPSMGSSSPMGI
Sequence of IgG4 SPLE (antibody not named, Tables 2A and 2B) (constant): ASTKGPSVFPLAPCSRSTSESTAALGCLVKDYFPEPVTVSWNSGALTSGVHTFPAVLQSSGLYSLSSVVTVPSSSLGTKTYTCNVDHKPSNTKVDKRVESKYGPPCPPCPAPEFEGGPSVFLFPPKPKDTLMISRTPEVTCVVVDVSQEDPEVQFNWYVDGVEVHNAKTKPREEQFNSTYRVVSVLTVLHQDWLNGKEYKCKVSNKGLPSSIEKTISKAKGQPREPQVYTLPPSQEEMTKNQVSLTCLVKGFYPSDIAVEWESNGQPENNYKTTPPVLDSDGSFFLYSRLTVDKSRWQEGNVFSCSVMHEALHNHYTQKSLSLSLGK

Substance | Kd [1] | Kd [2] | Kd [3] | further results
IgG4 SPLE (antibody not named, Tables 2A and 2B) | 10000 nM | – | – | –
IgG4 Wt | – | – | 14 nM | –
GA P329G | – | – | 12 nM | –
WT IgG1 (antibody not named, Tables 2A and 2B) | 2000 nM | 5 nM | – | Kd [4]: 700 nM

Now from value to substance, other results behind:

Kd [1] | Kd [2] | Kd [3] | Substance | further results
– | 5.7 nM | – | CD20 antibody GA101 IgG1 P329G | –
– | 4.6 nM | – | CD20 antibody GA101 IgG1 wildtype | –
